# Patent publication WO2007030708A2 (dated 2007)
# B1: sp55, soluble TNF receptor p55: ecto-domain of human TNFR-1 (residues 30-211) with C-terminal myc and His6 tags (receptor)
# chain: DAAQPARRAVRSLVPHLGDREKRDSVCPQGKYIHPQNNSICCTKCHKGTYLYNDCPGPGQDTDCRECESGSFTASENHLRHCLSCSKCRKEMGQVEISSCTVDRDTVCGCRKNQYRHYWSENLFQCFNCSLCLNGTVHLSCQEKQNTVCTCHAGFFLRENECVSCSNCKKSLECTKLCLPQIENVKGTEDSGTTRGGPEQKLISEEDLNSAVDHHHHHH
# notes: Used as conditioned medium of transfected 293T cells; also called p55FL-myc-his; p55L
# Biological target: T1, S-TNF, human TNFα fusion protein with an N-terminal S-Tag (human, UniProt P01375 77-233)
# T1 construct: Made, expressed and purified by the applicants; not shown: 15 amino acid S-Tag peptide (Novagen)
# T1 sequence (P01375 77-233): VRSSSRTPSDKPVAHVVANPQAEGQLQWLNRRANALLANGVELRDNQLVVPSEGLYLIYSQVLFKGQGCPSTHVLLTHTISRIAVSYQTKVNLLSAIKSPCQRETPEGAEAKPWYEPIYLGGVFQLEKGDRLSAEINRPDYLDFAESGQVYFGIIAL
# Assay: indirect ELISA: sp55 from conditioned medium captured on Ni-NTA wells, S-TNF at 1 μg/mL, S-protein-HRP detection, absorbance at 370 nm
binder,measurement,value
B1,fold elevation in S-TNF binding over non-specific binding in control samples,3 fold
